Reference: article doi:10.1101/2022.03.11.483953, “Structure and regulation of the myotonic dystrophy kinase-related Cdc42-binding kinase” (bioRxiv, 2022)

T1: FITC-labeled CRIB peptide of C. elegans MRCK1 (residues 1543-1572) (C. elegans, UniProt O01583 1543-1572, fluorescein (FITC) label, position not stated)
T1 construct: MRCK1, C. elegans, CRIB motif, residues 1543-1572; also called CRIB motif peptide; fluorescein-labeled peptide
T1 peptide (looked up): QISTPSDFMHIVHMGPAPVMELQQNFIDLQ

B1: C. elegans MRCK1, full length (MRCK1^1-1592) (enzyme, UniProt O01583 1-1592, looked up)
chain: MAEPPPDDSAPVRLKTLENIYMDGPSKKPEALSFETLIDSLICLYDECCNSTLRKEKCIAEFVESVKTVISKAKKLRLSRDDFEVLKVIGKGAFGEVAVVRMRGVGEIYAMKILNKWEMVKRAETACFREERDVLVYGDRRWITNLHYAFQDEKNLYFVMDYYIGGDMLTLLSKFVDHIPESMAKFYIAEMVLAIDSLHRLGYVHRDVKPDNVLLDMQGHIRLADFGSCLRILADGSVASNVAVGTPDYISPEILRAMEDGRGRYGKECDWWSLGICMYEMLYGTTPFYSERLVDTYGKIMSHQDMLDFPDDEIDWVVSEEAKDLIRQLICSSDVRFGRNGLSDFQLHPFFEGIDWNTIRDSNPPYVPEVSSPEDTSNFDVDVCEDDFTPCLQETQPPRVLAAFTGNHLPFVGFSYTHGSLLSDARSLTDEIRAIAQRCQGDAELMEKSVDGFMVELENEKAELVQKLKEAQTIIAQHVAENPRSEEDRNYESTIAQLKDEIQILNKRLEDEALAQQQQKPKDEIVAESEKKLKELKERNKQLVMEKSEIQRELDNINDHLDQVLVEKATVVQQRDDMQAELADVGDSLLTEKDSVKRLQDEAEKAKKQVADFEEKLKEIETEKIALIKKQEEVTIEARKSVETDDHLSEEVVAAKNTIASLQATNEERETEIKKLKQRMDEERASHTAQSEQEMKQLEAHYERAQKMLQDNVEQMNVENRGLRDEIEKLSQQMAALPRGGLNEQQLHEIFNWVSEEKATREEMENLTRKITGEVESLKNNSPLTTSNYIQNTPSGWGSRRMNNVARKDGLDLQRQLQAEIDAKLKLKAELKNSQEQYLTSAARLDDTEKRMASLMREVAMLKQQKNIENSSDSAFSSTMGRGDLMISMNNDYEMSNSSLMRQEMISRQSTPSYENAILLHDHQVPKRVDDLRYKQKPMKTASGIFSPVSISAMERGHNFERMKIKTPTKCGHCTSILIGLDRQGLFCQSCQYACHVSCAERVSQSCPVPEEERRPLGIDPTRGVGTAYEGLVKTPRAGGVRKGWQTAYVVVCDFKLYLYDCTVDRQNKMQDVKNEIRLVLDMRDPDFTVCGVSEADVIHAQKGDIPKIFRVTTTQILNSSSEYSSSSKFYTLFMAETEEEKRKWVVALSELKTLLRRSKLADRKAFLVKEVFDVTTLPSIRVAQCCAIIDRSKIVIGFSDHGLYCIEISRQLLIPVGGEKENKQRCVETVEYDEAEQLLMMIVGPAKDRHVRIVPSAALDGRDLKWIKVNDTKGCHLLAVGTNNPGGRAGFFAVAFKKSVTIFQIDRSEKRHKKWKDLAMPGTPQSIAIFNGRLYVGFSHSFRSWSLVGVDSSPVGSGDASGAVLQHISLVNMEDTSLQFLNQQTSYEAKLIVNVPGSPDEYLLVFNMIGLYVNEMGRRSRLPEVMFPTQAKYFAYHEPYLCVFSENEVDIFNVTLAEWVQTINLRSAKPLSGDGILSTCLCNDSPIFVLLQNVLQDQDSIEVPVNLASGSTDGRKVTRRKFTFRTIGKDDRSASERRSHIQISTPSDFMHIVHMGPAPVMELQQNFIDLQSNHSHTSSDKDSLNRSVNND
notes: source: baculovirus-infected Sf9 insect cells, purified (HisTrap, TEV cleavage, HiTrap Q); not shown: His10, N-terminal, cleaved; StrepII, N-terminal, cleaved
B2: Cdc42^2-178 (C-terminally truncated Cdc42 lacking its geranylgeranylation motif) (domain or fragment)
chain: not shown
notes: Cdc42, residues 2-178, C-terminally truncated; Loaded with GDP or with GMPPNP (Dbs exchange factor, then size exclusion) before the titration; the two loaded states are told apart by the assay; The species may be human instead (P60953); also called Cdc42 (residues 2-178); source: E. coli, purified (GST beads, TEV cleavage, SD75 size exclusion); not shown: GST, N-terminal, cleaved

Assays:
[1] = target: the molecule itself; assay: rotary shadowing electron microscopy; samples at 50 μg/ml in 100 mM ammonium acetate, 30% (v/v) glycerol, pH 7.4, sprayed on mica, coated with platinum and carbon
[2] = target: T1, FITC-labeled CRIB peptide of C. elegans …; assay: fluorescence polarisation; fluorescence anisotropy; Cdc42^2-178 loaded with GMPPNP titrated into 100 nM fluorescein-labeled peptide; 20 °C, 20 mM Tris pH 8.0, 100 mM NaCl, 1 mM TCEP; one-site binding model; settings: both partners purified

Binder | stoichiometry N [1] | fold stronger than Cdc42 bound to GDP [2]
B1 | 2 | 
B2 |  | 5 fold
